According to patent US20070148164A1 (Biogen, published 2007):

Key:
[1] = molecular target: T1, biotinylated human FcRn-huM4Fc fusion protein (human, biotinylated with BiotinXX sulfosuccinimidyl ester (sites not given)); assay: FRET competition at pH 5.8: unlabelled competitor mAb against Eu-labelled h5C8 for bhFcRnFc; plotted is mutant IC50/wt IC50
T1 construct: also called bhFcRnFc; biotinylated Fc/FcRn fusion protein

[2] = molecular target: T1, biotinylated human FcRn-huM4Fc fusion …; assay: AlphaScreen competition at pH 6.0: antibody in solution against human IgG1 acceptor beads for bhFcRnFc on streptavidin donor beads; plotted is IC50 (ug/ml by paragraph 723, no unit on the sheet)

binding result [1]	binding result [2]	Binder
binds	–	A287D (antibody, EU numbering, EU N297 = residue 300 of the chain; the sheets number them 2 and 4; also called huCBE11 altered antibody with mutation A287D; copies: 2 + 2) heavy: not shown light: DIQMTQSPSSLSASVGDRVTITCKAGQDIKSYLSWYQQKPGKAPKLLIYYATRLADGVPSRFSGSGSGTDYTLTISSLQPEDFATYYCLQHGESPWTFGGGTKLEIKRTVAAPSVFIFPPSDEQLKSGTASVVCLLNNFYPREAKVQWKVDNALQSGNSQESVTEQDSKDSTYSLSSTLTLSKADYEKHKVYACEVTHQGLSSPVTKSFNRGEC
binds	–	huCBE11 altered antibody with mutation M252S (antibody, human IgG1, kappa, Position is in EU numbering) heavy: not shown light: DIQMTQSPSSLSASVGDRVTITCKAGQDIKSYLSWYQQKPGKAPKLLIYYATRLADGVPSRFSGSGSGTDYTLTISSLQPEDFATYYCLQHGESPWTFGGGTKLEIKRTVAAPSVFIFPPSDEQLKSGTASVVCLLNNFYPREAKVQWKVDNALQSGNSQESVTEQDSKDSTYSLSSTLTLSKADYEKHKVYACEVTHQGLSSPVTKSFNRGEC
binds	–	huCBE11 altered antibody with mutation S304D (antibody, human IgG1, kappa, Position is in EU numbering) heavy: not shown light: DIQMTQSPSSLSASVGDRVTITCKAGQDIKSYLSWYQQKPGKAPKLLIYYATRLADGVPSRFSGSGSGTDYTLTISSLQPEDFATYYCLQHGESPWTFGGGTKLEIKRTVAAPSVFIFPPSDEQLKSGTASVVCLLNNFYPREAKVQWKVDNALQSGNSQESVTEQDSKDSTYSLSSTLTLSKADYEKHKVYACEVTHQGLSSPVTKSFNRGEC
–	binds	K288D (antibody, human IgG1, kappa, EU numbering, EU N297 = residue 300 of the chain; the sheets number them 2 and 4; also called huCBE11 altered antibody with mutation K288D; copies: 2 + 2) heavy: not shown light: DIQMTQSPSSLSASVGDRVTITCKAGQDIKSYLSWYQQKPGKAPKLLIYYATRLADGVPSRFSGSGSGTDYTLTISSLQPEDFATYYCLQHGESPWTFGGGTKLEIKRTVAAPSVFIFPPSDEQLKSGTASVVCLLNNFYPREAKVQWKVDNALQSGNSQESVTEQDSKDSTYSLSSTLTLSKADYEKHKVYACEVTHQGLSSPVTKSFNRGEC
binds	–	H285F (antibody, EU numbering, EU N297 = residue 300 of the chain; the sheets number them 2 and 4; also called huCBE11 altered antibody with mutation H285F; copies: 2 + 2) heavy: not shown light: DIQMTQSPSSLSASVGDRVTITCKAGQDIKSYLSWYQQKPGKAPKLLIYYATRLADGVPSRFSGSGSGTDYTLTISSLQPEDFATYYCLQHGESPWTFGGGTKLEIKRTVAAPSVFIFPPSDEQLKSGTASVVCLLNNFYPREAKVQWKVDNALQSGNSQESVTEQDSKDSTYSLSSTLTLSKADYEKHKVYACEVTHQGLSSPVTKSFNRGEC
binds	–	E345R (antibody, EU numbering, EU N297 = residue 300 of the chain; the sheets number them 2 and 4; also called huCBE11 altered antibody with mutation E345R; copies: 2 + 2) heavy: not shown light: DIQMTQSPSSLSASVGDRVTITCKAGQDIKSYLSWYQQKPGKAPKLLIYYATRLADGVPSRFSGSGSGTDYTLTISSLQPEDFATYYCLQHGESPWTFGGGTKLEIKRTVAAPSVFIFPPSDEQLKSGTASVVCLLNNFYPREAKVQWKVDNALQSGNSQESVTEQDSKDSTYSLSSTLTLSKADYEKHKVYACEVTHQGLSSPVTKSFNRGEC
binds	–	V284D (antibody, human IgG1, kappa, EU numbering, EU N297 = residue 300 of the chain; the sheets number them 2 and 4; also called huCBE11 altered antibody with mutation V284D; copies: 2 + 2) heavy: not shown light: DIQMTQSPSSLSASVGDRVTITCKAGQDIKSYLSWYQQKPGKAPKLLIYYATRLADGVPSRFSGSGSGTDYTLTISSLQPEDFATYYCLQHGESPWTFGGGTKLEIKRTVAAPSVFIFPPSDEQLKSGTASVVCLLNNFYPREAKVQWKVDNALQSGNSQESVTEQDSKDSTYSLSSTLTLSKADYEKHKVYACEVTHQGLSSPVTKSFNRGEC
binds	–	S304E (antibody, human IgG1, kappa, EU numbering, EU N297 = residue 300 of the chain; the sheets number them 2 and 4; also called huCBE11 altered antibody with mutation S304E; copies: 2 + 2) heavy: not shown light: DIQMTQSPSSLSASVGDRVTITCKAGQDIKSYLSWYQQKPGKAPKLLIYYATRLADGVPSRFSGSGSGTDYTLTISSLQPEDFATYYCLQHGESPWTFGGGTKLEIKRTVAAPSVFIFPPSDEQLKSGTASVVCLLNNFYPREAKVQWKVDNALQSGNSQESVTEQDSKDSTYSLSSTLTLSKADYEKHKVYACEVTHQGLSSPVTKSFNRGEC
binds	–	D376N (antibody, EU numbering, EU N297 = residue 300 of the chain; the sheets number them 2 and 4; also called huCBE11 altered antibody with mutation D376N; copies: 2 + 2) heavy: not shown light: DIQMTQSPSSLSASVGDRVTITCKAGQDIKSYLSWYQQKPGKAPKLLIYYATRLADGVPSRFSGSGSGTDYTLTISSLQPEDFATYYCLQHGESPWTFGGGTKLEIKRTVAAPSVFIFPPSDEQLKSGTASVVCLLNNFYPREAKVQWKVDNALQSGNSQESVTEQDSKDSTYSLSSTLTLSKADYEKHKVYACEVTHQGLSSPVTKSFNRGEC
–	binds	A287E (antibody, EU numbering, EU N297 = residue 300 of the chain; the sheets number them 2 and 4; also called huCBE11 altered antibody with mutation A287E; copies: 2 + 2) heavy: not shown light: DIQMTQSPSSLSASVGDRVTITCKAGQDIKSYLSWYQQKPGKAPKLLIYYATRLADGVPSRFSGSGSGTDYTLTISSLQPEDFATYYCLQHGESPWTFGGGTKLEIKRTVAAPSVFIFPPSDEQLKSGTASVVCLLNNFYPREAKVQWKVDNALQSGNSQESVTEQDSKDSTYSLSSTLTLSKADYEKHKVYACEVTHQGLSSPVTKSFNRGEC
binds	–	L314K (antibody, EU numbering, EU N297 = residue 300 of the chain; the sheets number them 2 and 4; also called huCBE11 altered antibody with mutation L314K; copies: 2 + 2) heavy: not shown light: DIQMTQSPSSLSASVGDRVTITCKAGQDIKSYLSWYQQKPGKAPKLLIYYATRLADGVPSRFSGSGSGTDYTLTISSLQPEDFATYYCLQHGESPWTFGGGTKLEIKRTVAAPSVFIFPPSDEQLKSGTASVVCLLNNFYPREAKVQWKVDNALQSGNSQESVTEQDSKDSTYSLSSTLTLSKADYEKHKVYACEVTHQGLSSPVTKSFNRGEC
binds	–	huCBE11 altered antibody with mutation V282E (antibody, human IgG1, kappa, Position is in EU numbering) heavy: not shown light: DIQMTQSPSSLSASVGDRVTITCKAGQDIKSYLSWYQQKPGKAPKLLIYYATRLADGVPSRFSGSGSGTDYTLTISSLQPEDFATYYCLQHGESPWTFGGGTKLEIKRTVAAPSVFIFPPSDEQLKSGTASVVCLLNNFYPREAKVQWKVDNALQSGNSQESVTEQDSKDSTYSLSSTLTLSKADYEKHKVYACEVTHQGLSSPVTKSFNRGEC
binds	–	R255M (antibody, EU numbering, EU N297 = residue 300 of the chain; the sheets number them 2 and 4; also called huCBE11 altered antibody with mutation R255M; copies: 2 + 2) heavy: not shown light: DIQMTQSPSSLSASVGDRVTITCKAGQDIKSYLSWYQQKPGKAPKLLIYYATRLADGVPSRFSGSGSGTDYTLTISSLQPEDFATYYCLQHGESPWTFGGGTKLEIKRTVAAPSVFIFPPSDEQLKSGTASVVCLLNNFYPREAKVQWKVDNALQSGNSQESVTEQDSKDSTYSLSSTLTLSKADYEKHKVYACEVTHQGLSSPVTKSFNRGEC
–	binds	K288M (antibody, EU numbering, EU N297 = residue 300 of the chain; the sheets number them 2 and 4; also called huCBE11 altered antibody with mutation K288M; copies: 2 + 2) heavy: not shown light: DIQMTQSPSSLSASVGDRVTITCKAGQDIKSYLSWYQQKPGKAPKLLIYYATRLADGVPSRFSGSGSGTDYTLTISSLQPEDFATYYCLQHGESPWTFGGGTKLEIKRTVAAPSVFIFPPSDEQLKSGTASVVCLLNNFYPREAKVQWKVDNALQSGNSQESVTEQDSKDSTYSLSSTLTLSKADYEKHKVYACEVTHQGLSSPVTKSFNRGEC
–	binds	R255L (antibody, EU numbering, EU N297 = residue 300 of the chain; the sheets number them 2 and 4; also called huCBE11 altered antibody with mutation R255L; copies: 2 + 2) heavy: not shown light: DIQMTQSPSSLSASVGDRVTITCKAGQDIKSYLSWYQQKPGKAPKLLIYYATRLADGVPSRFSGSGSGTDYTLTISSLQPEDFATYYCLQHGESPWTFGGGTKLEIKRTVAAPSVFIFPPSDEQLKSGTASVVCLLNNFYPREAKVQWKVDNALQSGNSQESVTEQDSKDSTYSLSSTLTLSKADYEKHKVYACEVTHQGLSSPVTKSFNRGEC
binds	–	huCBE11 altered antibody with mutation K290D (antibody, human IgG1, kappa, Position is in EU numbering) heavy: not shown light: DIQMTQSPSSLSASVGDRVTITCKAGQDIKSYLSWYQQKPGKAPKLLIYYATRLADGVPSRFSGSGSGTDYTLTISSLQPEDFATYYCLQHGESPWTFGGGTKLEIKRTVAAPSVFIFPPSDEQLKSGTASVVCLLNNFYPREAKVQWKVDNALQSGNSQESVTEQDSKDSTYSLSSTLTLSKADYEKHKVYACEVTHQGLSSPVTKSFNRGEC
binds	–	V279E (antibody, human IgG1, kappa, EU numbering, EU N297 = residue 300 of the chain; the sheets number them 2 and 4; also called huCBE11 altered antibody with mutation V279E; copies: 2 + 2) heavy: not shown light: DIQMTQSPSSLSASVGDRVTITCKAGQDIKSYLSWYQQKPGKAPKLLIYYATRLADGVPSRFSGSGSGTDYTLTISSLQPEDFATYYCLQHGESPWTFGGGTKLEIKRTVAAPSVFIFPPSDEQLKSGTASVVCLLNNFYPREAKVQWKVDNALQSGNSQESVTEQDSKDSTYSLSSTLTLSKADYEKHKVYACEVTHQGLSSPVTKSFNRGEC
binds	–	H285D (antibody, human IgG1, kappa, EU numbering, EU N297 = residue 300 of the chain; the sheets number them 2 and 4; also called huCBE11 altered antibody with mutation H285D; copies: 2 + 2) heavy: not shown light: DIQMTQSPSSLSASVGDRVTITCKAGQDIKSYLSWYQQKPGKAPKLLIYYATRLADGVPSRFSGSGSGTDYTLTISSLQPEDFATYYCLQHGESPWTFGGGTKLEIKRTVAAPSVFIFPPSDEQLKSGTASVVCLLNNFYPREAKVQWKVDNALQSGNSQESVTEQDSKDSTYSLSSTLTLSKADYEKHKVYACEVTHQGLSSPVTKSFNRGEC
–	binds	K288E (antibody, human IgG1, kappa, EU numbering, EU N297 = residue 300 of the chain; the sheets number them 2 and 4; also called huCBE11 altered antibody with mutation K288E; copies: 2 + 2) heavy: not shown light: DIQMTQSPSSLSASVGDRVTITCKAGQDIKSYLSWYQQKPGKAPKLLIYYATRLADGVPSRFSGSGSGTDYTLTISSLQPEDFATYYCLQHGESPWTFGGGTKLEIKRTVAAPSVFIFPPSDEQLKSGTASVVCLLNNFYPREAKVQWKVDNALQSGNSQESVTEQDSKDSTYSLSSTLTLSKADYEKHKVYACEVTHQGLSSPVTKSFNRGEC
binds	–	huCBE11 altered antibody with mutation M252T (antibody, human IgG1, kappa, Position is in EU numbering) heavy: not shown light: DIQMTQSPSSLSASVGDRVTITCKAGQDIKSYLSWYQQKPGKAPKLLIYYATRLADGVPSRFSGSGSGTDYTLTISSLQPEDFATYYCLQHGESPWTFGGGTKLEIKRTVAAPSVFIFPPSDEQLKSGTASVVCLLNNFYPREAKVQWKVDNALQSGNSQESVTEQDSKDSTYSLSSTLTLSKADYEKHKVYACEVTHQGLSSPVTKSFNRGEC
binds	–	E345Q (antibody, human IgG1, kappa, EU numbering, EU N297 = residue 300 of the chain; the sheets number them 2 and 4; also called huCBE11 altered antibody with mutation E345Q; copies: 2 + 2) heavy: not shown light: DIQMTQSPSSLSASVGDRVTITCKAGQDIKSYLSWYQQKPGKAPKLLIYYATRLADGVPSRFSGSGSGTDYTLTISSLQPEDFATYYCLQHGESPWTFGGGTKLEIKRTVAAPSVFIFPPSDEQLKSGTASVVCLLNNFYPREAKVQWKVDNALQSGNSQESVTEQDSKDSTYSLSSTLTLSKADYEKHKVYACEVTHQGLSSPVTKSFNRGEC
